Consider one protein from PMC6954729, “Type I fatty acid synthase trapped in the octanoyl‐bound state” (Protein Science : A Publication of the Protein Society, 2020).

This data set deals with the molecule itself. The data set is described as follows: crystal structure; crystals grown in 0.2 M potassium-sodium tartrate, 25% (w/v) PEG 3350 at 20°C, soaked with octanoyl-CoA for up to 2 min; 2.7 Å; four chains (A-D) in the asymmetric unit.

B1: murine KS-MAT didomain (condensing part of murine Type I fatty acid synthase), octanoyl-bound (domain or fragment)
chain: EEVVIAGMSGKLPESENLQEFWANLIGGVDMVTDDDRRWKAGLYGLPKRSGKLKDLSKFDASFFGVHPKQAHTMDPQLRLLLEVSYEAIVDGGINPASLRGTNTGVWVGVSGSEASEALSRDPETLLGYSMVGCQRAMMANRLSFFFDFKGPSIALDTACSSSLLALQNAYQAIRSGECPAALVGGINLLLKPNTSVQFMKLGMLSPDGTCRSFDDSGSGYCRSEAVVAVLLTKKSLARRVYATILNAGTNTDGSKEQGVTFPSGEVQEQLICSLYQPAGLAPESLEYIEAHGTGTKVGDPQELNGITRSLCAFRQAPLLIGSTKSNMGHPEPASGLAALTKVLLSLEHGVWAPNLHFHNPNPEIPALLDGRLQVVDRPLPVRGGNVGINSFGFGGSNVHVILQPNTRQAPAPTAHAALPHLLHASGRTLEAVQDLLEQGRQHSQDLAFVSMLNDIAATPTAAMPFRGYTVLGVEGRVQEVQQVSTNKRPLWFICSGMGTQWRGMGLSLMRLDSFRESILRSDEAVKPLGVKVSDLLLSTDERTFDDIVHAFVSLTAIQIALIDLLTSVGLKPDGIIGHSLGEVACGYADGCLSQREAVLAAYWRGQCIKDAHLPPGSMAAVGLSWEECKQRCPAGVVPACHNSEDTVTISGPQAAVNEFVEQLKQEGVFAKEVRTGGLAFHSYFMEGIAPTLLQALKKVIREPRPRSARWLSTSIPEAQWQSSLARTSSAEYNVNNLVSPVLFQEALWHIPEHAVVLEIAPHALLQAVLKRGVKSSCTIIPLMKRDHKDNLEFFLTNLGKVHLTGINVNPNALFPPVEFPAPRGTPLISPHIKWDHSQTWDVPVAEDFPN
modifications: octanoyl covalently bound to C161 (KS, all four chains of the asymmetric unit); octanoyl covalently bound to S581 (MAT, chain D only)
notes: Type I fatty acid synthase (FAS), murine; condensing part with KS, linker domain (LD) and MAT; residues 1-407 and 824-852 (KS) and 488-806 (MAT) are named in superpositions; Wild type; also called murine FAS KS-MAT didomain; Wildtype soaked with octanoyl-CoA; source: E. coli BL21 Gold (DE3), purified (Ni-NTA, Strep-Tactin, SEC)
In the case of B1, the binding result is reported as “binds”.
